This data set can be described thus: soluble on expression in E. coli; label from the status in PepcDB or PDB records.
Consider “MGSDKIHHHHHHMSDKTKELRNKYNSKNRHKNFGPCLRKVHIEGFRGVQSADLELEFPITAISGLNGSGKSTVGQLAICAYKKPDKSMTYKRLYIKDFFPVSPADPKPISDSAKVVYFYETDDYQKPKEVTVSRVKSSWSGYKRQPERYCYYIGFTVYLPKVERRDLSVYAGVNLQFTEKRDIEAEVVKKMARIIGHKYENVAFQGVSHNGKESEVGIAYRLGYSYSENNMGFGEGRILYTIDKLESSPEQSLFILEEPETSLHESAQHEFAKYLLDVCNRRHHQIILSTHSSVIVNALPPESRKLMIRDEGGVDIRNKISSGQLRSILSSGHVRSLDICVEDNFAKVLLIEVIRMKRKALLKIVEIHAIGSTDAVREAVRILKKTGKKAIAVRDADIGPSEKEGLYSFPGNKPPEKEVFEHSAVKAFFKSKYDLDVEWFFQYKNVSDHHYYAKCIASEIASDESVIQTSAIEEYLKHVNNNFDYLIDAIEKELDNHN”, for which the “soluble on expression in E. coli” value was “not soluble”.
“HLYPGEVCPGMDIRNNLTRLHELENCSVIEGHLQILLMFKTRPEDFRDLSFPKLIMITDYLLLFRVYGLESLKDLFPNLTVIRGSRLFFNYALVIFEMVHLKELGLYNLMNITRGSVRIEKNNELCYLATIDWSRILDSVEDNHIVLNKDDNEECGDICPGTAKGKTNCPATVINGQFVERCWTHSHCQKVCPTICKSHGCTAEGLCCHSECLGNCSQPDDPTKCVACRNFYLDGRCVETCPPPYYHFQDWRCVNFSFCQDLHHKCKNSRRQGCHQYVIHNNKCIPECPSGYTMNSSNLLCTPCLGPCPKVCHLLEGEKTIDSVTSAQELRGCTVINGSLIINIRGGNNLAAELEANLGLIEEISGYLKIRRSYALVSLSFFRKLRLIRGETLEIGNYSFYALDNQNLRQLWDWSKHNLTITQGKLFFHYNPKLCLSEIHKMEEVSGTKGRQERNDIALKTNGDQASCENELLKFSYIRTSFDKILLRWEPYWPPDFRDLLGFMLFYKEAPYQNVTEFDGQDACGSNSWTVVDIDPPLRSNDPKSQNHPGWLMRGLKPWTQYAIFVKTLVTFSDERRTYGAKSDIIYVQTDATNPSVPLDPISVSNSSSQIILKWKPPSDPNGNITHYLVFWERQAEDSELFELDYCLKGLKLPSRTWSPPFESEDSQKHNQSEYEDSAGECCSCPKTDSQILKELEESSFRKTFEDYLHNVVFVPRPSRKRRSLGDVGNHGNNVPTVAAFPNTSSTSVPTSPEEHRPFEKVVNKESLVISGLRHFTGYRIELQACNQDTPEERCSVAAYVSARTMPEAKADDIVGPVTHEIFENNVVHLMWQEPKEPNGLIVLYEVSYRRYGDEELHLCDTRKHFALERGCRLRGLSPGNYSVRIRATSLAGNGSWTEPTYFYVTDYLDVPSNIAK”: the “soluble on expression in E. coli” value is “soluble”.
On to “MGSDKIHHHHHHCDDFLDSFPQDTVTNENFWKSKEDADKVLVDIYASLLPKDAIFFDEAMSDNAYLVWDWWGGAQQVANGSYTTSGEIPTNRWNGSYEVIRKCWFLLEGIEKIEDISEQDKNKIIGETYFMLAYNYYVLTSYFGDVPLVTKTLAIPESKQLVRTPKAEVVDYAINKLKEAAVMLEGLSQEKGRVTADACRFLIARMYLYNGDYSNVLETVKLLEGKYQLYREGDTPYEDLFSGVAENSCEVILSVVCDKRVGEIYTSHGGNGIMLLKGITGEDPYRGVTPSGSLVDAYPMADGRLIHEAGSSYDPKKPYEGRDPRFYQSIVYPTGQIKYLDVETGTVKERLYDPEDPTTVPEHQYNYSQPSATGYMWNKYIDYSVYAMNSVWDCTNDIIVFRYADVLLMKAEALLQTKGESAKEEVCNLIDQLRDRCSCGRVHRENYNSKDELMELLKNERRIELANEGLRYMDLIRWKDAEKNTIVTGVGLTGQMYGAYMRKDGVGKDDKTVDVDNTPRRYIETRYFNASKGYLFPIPQKERDLNPNLTQNPNW”, for which the “soluble on expression in E. coli” value is “not soluble”.
Regarding “MSWDLSTAKPPVVVDTTLRDGSHAHRHQYTVEEARAIAQALDEAGVYAIEVSHGDGLGGSSLQYGFSRTDEMELIRAVRETVRRAKVAALLLPGIGTRKELKEAVEAGIQMVRIATQCTEADISEQHFGMAKEMGLEAVGFLMMSHMRPPEFLAEQARLMEGYGADVVYIVDSAGAMLPEDAYARVKALKEALSRAKVGFHAHNNLGLAIGNTLAALAAGADWVDATLRGYGAGAGNAPLEVLAAVLDKAGLNPGLDVFKLLDAAEYVMGPILHFQPYPDRDSVAIGYAGVYSTFLLHAKRIGKELGVDPLAILLELGRRQAVAGQEDWILRVALELKEKEAGALAD”, the “soluble on expression in E. coli” value was “soluble”.
In the case of “MGSDKIHHHHHHMQFVFDIDGTICFDRFQIDARIKAILKDAANYGHQISFASARSYRDCIDVLGQELSQKTVIGLNGGLAYKAGELILEKPMNHRAFDLALYYCHRYQLPYFVDDDFNYAHHLEQFIPFIHSVDPLKLAKEVGVEDLKHPIKMVVFFGNHLDKIAEVSHHLAKLEQLDITFHDDESCLYLNPKEVTKSSTIQELFDHDFVAFGNDRNDIAMFQAAVYSVQVGDFADLSPFADTQVLLRQDYHQAVADKIHETFEKFRA”, the “soluble on expression in E. coli” value is “not soluble”.
In the case of “MAHHHHHHMEGKKCFYITEKGKKQNFRNIKLITFDLDHTIWNIDGLLNYADKECYEYMKKNYRRLYDYLQEEYQLSITNLVKQLLENKIEDNNDGVQTLTNMRIDALKFLAKKTNYDEGKFVSEIQELWKEKKNDVHLFISPGTLEYLRELKRRGYTLGAITNGDSDVNGIKFLNEIFTFVIRSMDYNHSKPSVEIFNIAENILKKKNFHFEIHQWMHVGDDVYTDIMGAKNKNINCAWITMFRDGSEVPPNDWYPYLKLKLEENGDSHLSQYDPFADGLFSRFRRRDVVLPYEYIDIEIRHCRDLDAILA”, the “soluble on expression in E. coli” value is given as “soluble”.
Next, “MGSDKIHHHHHHMRVAIDAFNIALAHGTGVATYGRTLASAAAGLGHEVNVLFGAGAGYSKVPLLNEIALAEVGAVSARGPSRAALARGIARGLAGARPAHDLPISGQVILPPGLRLDARRHSNVPNLFKAADLGFRAAGAFSKVKVPGTDLAHWTYPLPLKMVGARNVYTLHDLVPLRLPYTTADVKHAYYRLCRRIARDADHILTVSECSRRDIVRLLGVDEDRVTNLYQTSDIADAIAGVSEDFVARYVEGLLGVGMREYFLFFGAIEPKKNVARLIEAFLASAVQSPLVIVGGAGWGGEQDVKLLKSLAGMDTRKRIVWLGYLPRQMLAMLIAGARATVFPSLYEGFGLPVLESMELGTPVITSNVSSLPEVAQDAGLLVDPYDVRSLATAFLQLDADPGLRSQMSMRGREVAAGFSAEAYRGRLADFYAKF”: “not soluble”; “MGSDKIHHHHHHMRTVLYDEHAKLNAKFTEFNGWDMPLYYRSIIEEHMAVRKHVGIFDVSHMGDVTVSGKDASAFLDHMFPTKVSNLKNGECVYTAFLNDSGLMIDDTIVYRMGEDSYFFVPNAGTTEKIYRWVSDHSAGYSVKIENVSNRISSIALQGPESEEVLNELGFSYPGYFKFQYVSGKYMNAITGKDQIIISGTGYTGEKGVEFIIPNEHAVELWKKLLEAINKRNGLPAGLGARDTLRMEKGMLLSGHDFNEDRDPYEASVSFIVNNDEDFVGKKNLEIRRRSDHEIFRGFVLSDGIPRNGNPIKAGGKRVGTVTSGTISPVLNKGIALGYIDKAYSKENTEVMIEIRSVDHKAVVTKPRIVK”: “not soluble”.
On to “SLNVPDMILYNGKITTLDPSQPEVSAIAITDGLITAVGGYELLNSATEKTKKIDLKRKRAIPGLNDSHIHVIRGGLHYNMELRWEGVPSIAIALEMLKEQARRTPAPQWVRVVGGWSEFQFKERRMPTLEEINAVSEDTPVFVLHLYDRALVNRAGLRALGYTKDTPDPPGCLIERDKRGNPTGLLIANPNASILYSSLGKAPILNFDDQINSTRHFMRELNRLGITSAIDAGGGFQNYPDDYRVVEHLAEKEQLTLRIAYNLFTQNPNHEYEDFASWAKIVSPGQGNDKYKMNGAGEMLVFSAADFEKFQMPRPELATMMEADLKKVISLLVENRWPFRLHATYDESITRFLNVFEEVNKEIPFNGLRWWFDHAETISDRSMERVKALNGGIAIQDRMAFQGEYFVDLYGKEAAKRTPPIYRMLDLGIPVGAGSDATRVSSYNPWVALYWMVAGKTIGGLSIYDKKNKLDRKVALELYSKGSAWFSGDEGKKGTLAVGQFADIAVLSADYFTVPEEEIKDLESLLTIMGGQVVYGNDEFKNLSPELPPASPDWSPTGVYGYGGANLAHTILSHNSHDNKLHSCSNPLHQHTHTVIGKDGTKWGIGCTCFAF”, for which the “soluble on expression in E. coli” value is on record as “not soluble”.
